Source: PMC9282883

Target: SARS-CoV-2 RBD WT (for SPR binding assays) (SARS-CoV-2) (UniProt P0DTC2)

Substance: S309 IgG1 (antibody)
- IC50, neutralisation of authentic SARS-CoV-2 (SARS-CoV-2-Nluc) on Vero E6 cells: 0.0789 µg/mL
- IC90, neutralisation of authentic SARS-CoV-2 (SARS-CoV-2-Nluc) on Vero E6 cells: 0.3 µg/mL
